Measured values as given in patent US20110135636A1 (SYMPHOGEN A S, published 2011).

Experiments:
[1] = molecular target: T1, recombinant human EGFR extracellular domain with 6xHis (human, UniProt P00533 25-645); experiment: SPR competition, competitor 1024
T1 construct: In-house produced; also called 6xHis EGFR ECD; soluble human EGFR ECD; not shown: 6xHis tag
Experimental: (§1) SPR analysis was performed on a Biacore 3000 machine containing four flow cells. A CM5 Biacore chip was conjugated with 10,000 Resonance units (Ru) polyclonal anti-His antibody to flow cells 1-4 according to the manufacturer's instructions. […] Immediately after antigen injection the maximal binding of the Anti-EGFR mAb without competition was established in each flow cell during a reference run. Briefly 5 μl antibody at a concentration of 40 μg/ml was injected over all flow cells with captured EGFR followed by stripping of the antibody/antigen complex with a low pH acid wash (10 sec. contact time with 10 mM Glycine-HCl, pH2). After the determination of Anti-EGFR antibody maximal binding to each flow cell, a competition run was performed during the same Biacore cycle. Flow cells were first saturated with EGFR ECD antigen followed by injection of different reference antibodies or Anti-EGFR antibodies into separate flow cells using the same antigen saturating conditions as outlined above. This step was immediately followed by a second injection of Anti-EGFR antibody over the flow cell saturated with EGFR antigen and competition antibody to minimize the dissociation of either antigen or blocking antibody. Then the antibody/antigen complexes were stripped off with a low pH acid wash (10 sec. contact time with 10 mM Glycine-HCl, pH 2) and the whole cycle beginning with the reference run was repeated with a new Anti-EGFR antibody. The degree of inhibition of tested Anti-EGFR antibodies were determined by comparing the Ru max value of the individual Anti-EGFR antibody before and after competition by introduction of report points recorded two seconds before and after injection of each sample.

[2] = molecular target: T1, recombinant human EGFR extracellular …; experiment: SPR competition, competitor Ab-1
Experimental: as §1

[3] = molecular target: T1, recombinant human EGFR extracellular …; experiment: SPR competition, competitor Ab-10
Experimental: as §1

[4] = molecular target: T1, recombinant human EGFR extracellular …; experiment: SPR competition, competitor 1261
Experimental: as §1

[5] = molecular target: T1, recombinant human EGFR extracellular …; experiment: SPR competition, competitor 1347
Experimental: as §1

[6] = molecular target: T1, recombinant human EGFR extracellular …; experiment: SPR competition, competitor Vectibix
Experimental: as §1

[7] = molecular target: T1, recombinant human EGFR extracellular …; experiment: SPR competition, competitor 1254
Experimental: as §1

[8] = molecular target: T1, recombinant human EGFR extracellular …; experiment: SPR competition, competitor 1257
Experimental: as §1

[9] = molecular target: T1, recombinant human EGFR extracellular …; experiment: SPR competition, competitor Vectibix; remark: listed apart in the source
Method in brief: (§2)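 First, EGFR ECD-His was captured on anti-His-coated flow cells. Second, maximal binding of the anti-EGFR mAb (40 μg/ml) was recorded. Third, competitor antibody was bound, then the same mAb was reinjected immediately. Ru max before vs after gave inhibition.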

[10] = molecular target: T1, recombinant human EGFR extracellular …; experiment: SPR competition, competitor 1030corr
Experimental: as §1

[11] = molecular target: T1, recombinant human EGFR extracellular …; experiment: SPR competition, competitor 1284
Experimental: as §1

[12] = molecular target: T1, recombinant human EGFR extracellular …; experiment: SPR competition, competitor 1344
Experimental: as §1

[13] = molecular target: T1, recombinant human EGFR extracellular …; experiment: SPR competition, competitor Erbitux
Method in brief: as §2

[14] = molecular target: T1, recombinant human EGFR extracellular …; experiment: SPR competition, competitor 1260
Experimental: as §1

[15] = molecular target: T1, recombinant human EGFR extracellular …; experiment: SPR competition, competitor 1320
Experimental: as §1

[16] = molecular target: T1, recombinant human EGFR extracellular …; experiment: SPR competition, competitor Ab-11
Experimental: as §1

[17] = molecular target: T1, recombinant human EGFR extracellular …; experiment: SPR competition, competitor Erbitux; remark: listed apart in the source
Experimental: as §1

[18] = molecular target: T1, recombinant human EGFR extracellular …; experiment: SPR competition, competitor 992 corr
Method in brief: as §2

[19] = molecular target: T1, recombinant human EGFR extracellular …; experiment: SPR competition, competitor 1208
Experimental: as §1

[20] = molecular target: T1, recombinant human EGFR extracellular …; experiment: SPR competition, competitor 1277
Experimental: as §1

[21] = molecular target: T1, recombinant human EGFR extracellular …; experiment: SPR competition, competitor Ab-3
Experimental: as §1

[22] = molecular target: T1, recombinant human EGFR extracellular …; experiment: SPR competition, competitor Ab-5
Experimental: as §1

[23] = molecular target: T1, recombinant human EGFR extracellular …; experiment: SPR competition, competitor ICR10
Experimental: as §1

B1: antibody 1344 (antibody, human IgG1, kappa, V domains shown)
VH: QVQLKESGPGLVAPSQSLSITCTVSGFSLTIYGVHWVRQPPGKGLEWLGVIWAGGNTNYNSALMSRLSISKDNSKSQVFLKMNSLQTDDTAMYFCARGYGYNLDYWGQGTTLTVSS
VL: DIQMTQTTSSLSASLGDRVTISCSASQGISNYLNWYQQKPDGTVKLLIYYTSSLHSGVPSRFSGSGSGTDYSLTISNLEPEDIATYYCQQYSKLPYTFGGGTKLEIKR
notes: Chimeric IgG1 kappa
[1]
  % inhibition: 3%
[2]
  % inhibition: -2%
[3]
  % inhibition: 0%
[4]
  % inhibition: 71%
[5]
  % inhibition: 15%
[6]
  % inhibition: -5%
[7]
  % inhibition: 10%
[8]
  % inhibition: 83%
[9]
  % inhibition: 8%
[10]
  % inhibition: 31%
[11]
  % inhibition: 81%
[12]
  % inhibition: 83%
[13]
  % inhibition: -4%
[14]
  % inhibition: 87%
[15]
  % inhibition: 8%
[16]
  % inhibition: 86%
[17]
  % inhibition: -4%
[18]
  % inhibition: 9%
[19]
  % inhibition: 3%
[20]
  % inhibition: 10%
[21]
  % inhibition: 25%
[22]
  % inhibition: -3%
[23]
  % inhibition: 87%

B2: antibody 1260 (antibody, human IgG1, kappa, V domains shown)
VH: QVQLKESGPGLVAPSQSLSITCTVSGFSLTTYGVHWVRQPPGKGLEWLGVIWAGGSTNYNSALMSRLSIKKDNSKSQVFLKMNSLQTDDTAMYYCARAYGYNFDYWGQGTTLTVSS
VL: DIQMTQTTSSLSASLGDRVTISCSASQGITNYLNWYQQKPDGTVKLLIYYSSSLHSGVPSRFSGSGSGTDYSLTISNLEPEDIATYYCQQYSEIPYTFGGGTKLELKR
notes: Chimeric IgG1 kappa
[1]
  % inhibition: 33%
[2]
  % inhibition: 7%
[3]
  % inhibition: 12%
[4]
  % inhibition: 97%
[5]
  % inhibition: 46%
[6]
  % inhibition: 10%
[7]
  % inhibition: 22%
[8]
  % inhibition: 55%
[9]
  % inhibition: 31%
[10]
  % inhibition: 18%
[11]
  % inhibition: 67%
[12]
  % inhibition: 83%
[13]
  % inhibition: 8%
[14]
  % inhibition: 88%
[15]
  % inhibition: 26%
[16]
  % inhibition: 99%
[17]
  % inhibition: 8%
[18]
  % inhibition: -10%
[19]
  % inhibition: 33%
[20]
  % inhibition: 25%
[21]
  % inhibition: 64%
[22]
  % inhibition: 1%
[23]
  % inhibition: 91%

B3: antibody 1261 (antibody, human IgG1, kappa, V domains shown)
VH: EVQLVESGGGLVKPGGSLKLSCAVSGFTFSSYVMSWVRQTPEKRLEWVATITSGGRNIYYLDSVKGRFTISRDNAKNTLYLQMSSLRSEDTAMYYCARHEDYRYDGYYAMDYWGQGTSVTVSS
VL: QIVLTQSPAIMSASPGEKVTITCSASSSVSYMHWFQQKPGTSPKLWIYSTSNLASGVPARFSGSGSGTSYSLTISRMEAEDAATYYCQQRSSYPYTFGGGTKLELKR
notes: Chimeric IgG1 kappa
[1]
  % inhibition: -24%
[2]
  % inhibition: -4%
[3]
  % inhibition: -6%
[4]
  % inhibition: 95%
[5]
  % inhibition: 4%
[6]
  % inhibition: -5%
[7]
  % inhibition: -12%
[8]
  % inhibition: 58%
[9]
  % inhibition: -21%
[10]
  % inhibition: -6%
[11]
  % inhibition: -8%
[12]
  % inhibition: 65%
[13]
  % inhibition: -2%
[14]
  % inhibition: 75%
[15]
  % inhibition: -18%
[16]
  % inhibition: 94%
[17]
  % inhibition: -2%
[18]
  % inhibition: 14%
[19]
  % inhibition: -24%
[20]
  % inhibition: -19%
[21]
  % inhibition: 54%
[22]
  % inhibition: -3%
[23]
  % inhibition: 24%

B4: antibody 1257 (antibody, human IgG1, kappa, V domains shown)
VH: EVQLQQSGPELVKPGASVKIPCKTSGYTFTDYNMAWVKQSHGKSLEWIGDIIPNNGGAIYNQKFKGKATLTVDKSSSTASMELRSLTSEDTAVYFCARKNIYYRYDGAGALDYWGQGTSVTVSS
VL: QIVLTQSPAIMSASPGEKVTMTCSASSSVSYIYWYQQKPGSSPRLLIYDASNLASGVPVRFSGSGSGTSYSLTISRMEAEDAATYYCQQWSSYPITFGSGTKLEIKR
notes: Chimeric IgG1 kappa
[1]
  % inhibition: 17%
[2]
  % inhibition: -1%
[3]
  % inhibition: 1%
[4]
  % inhibition: 103%
[5]
  % inhibition: 21%
[6]
  % inhibition: -2%
[7]
  % inhibition: 8%
[8]
  % inhibition: 90%
[9]
  % inhibition: 15%
[10]
  % inhibition: 4%
[11]
  % inhibition: 16%
[12]
  % inhibition: 80%
[13]
  % inhibition: 0%
[14]
  % inhibition: 68%
[15]
  % inhibition: 15%
[16]
  % inhibition: 100%
[17]
  % inhibition: 0%
[18]
  % inhibition: 16%
[19]
  % inhibition: 17%
[20]
  % inhibition: 11%
[21]
  % inhibition: 85%
[22]
  % inhibition: -5%
[23]
  % inhibition: 22%
